We go through two molecules from patent publication US12065673B2, “Method for obtaining human brown/beige adipocytes” (ETABLISSEMENT FRANCAIS DU SANG, priority 2015, dated 2024).

What all share (format): cell-based, human
For assay [1], the system named is adipogenic progenitor cells (pAdSCs). In words: Adipogenic differentiation after BMP induction (QRT-PCR adipocyte markers, Oil red O). Particulars: 50 ng/mL BMP for 3 days, recovered at day 10.
Protocol: Total RNA was extracted from ASCs and purified by AllPrep DNA/RNA/Protein kit (Qiagen, Courtaboeuf, France) and dosed by nanodrop (Thermo Fischer, Courtaboeuf, France). RNA purity and integrity was checked using the Experion™ RNA Std Sens Reagents on the Experion automatisated system (Biorad). […] The reverse transcription (RT) was performed on 1 μg RNA by using high capacity cDNA reverse transcription kit (Applied Biosystem ™) and random hexamers in a final volume of 20 μL. The oligonucleotides for each target of interest, designed by using Primer Express software (PerkinElmer Life Sciences, Waltham, Mass.) were used (forward and reverse) and listed in table1. Quantitative PCR was performed on diluted cDNA (equivalent to 25 ng of starting purified RNA) using SSoFast EvaGreen Supermix (Biorad, Marnes-la-Coquette, France) with 500 nM of forward and reverse primers in a total volume of 20 μL on a CFX™ Real Time System (Biorad) following: 95° C., 3 minutes and 40 cycles of denaturation (95° C., 10 seconds) and primers hybridation and amplification (60° C., 30 seconds). […] Melt curves and appropriate No RT control were used to validate amplification specificity. Data were analysed on Bio-Rad CFX manager (threshold=0.2), exported to DataAssist Software v3.0 (Applied Biosystems). […] All real-time PCR reactions for the individual samples were performed in duplicate. […]
Another assay relates to standard ASCs. Put plainly: Osteoblastic marker expression after BMP induction. To be noted: 50 ng/mL BMP for 3 days.
For assay [2], the system named is adipogenic progenitor cells (pAdSCs). In words: Brown/beige marker UCP1 by western blotting and immuno-fluorescence. Particulars: adipocytes from adipogenic progenitor cells; for UCP1 induction at protein level: western blotting and immuno-fluorescence. The procedure:
Proteins which were extracted by AllPrep DNA/RNA/Protein kit (Qiagen, Courtaboeuf, France) were subjected to the Western blot analysis. Briefly, eluate from DNA and RNA retention columns was precipitated by APP buffer (v/v), centrifuged (10,000 g, 10 min), washed by ethanol 70%, and air dried. Pellets were dissolved in ALO buffer (Qiagen, Courtaboeuf, France), sonicated and protein content was determined by Bicinchoninic Acid method (Pierce). After denaturation (95° C., 5 min), proteins were separated by 12% Tris-glycine-SDS polyacrylamide gel electrophoresis, and subsequently transferred to polyvinylidene difluoride membrane (PVDF). The proteins were detected with Rabbit polyclonal Ab anti-human SOX2 (ab97959; Abcam, Cambridge, UK), anti-human OCT4 (ab19857, Abcam), anti-human NANOG (SC33759; SantaCruz, Dallas, Tex.), anti-human PRDM16, anti-human UCP1, or with Mouse monoclonal Ab anti-human PPARG, anti-βActin and anti-RUNX2 (Abcam) antibodies. […] The Pactin was used as internal positive control (Sigma).
After expansion, ASC- or EGM-2-derived cells were also cultured in chamber slides and after becoming confluent, cells were induced to differentiate into brown/beige adipocytes. After 7 days, the cells were stained with anti-UCP1 antibody (Alpha Diagnostic, San-Antonio, Tex.), and then with Alexa488-labeled goat anti-mouse secondary antibody (Invitrogen). The staining was read by using confocal microscope (Zeiss 510, Zeiss, Oberkochen, Germany).

Assay [3] has as its system MSCs cultured in standard conditions. Put plainly: BMP7-induced differentiation of BM-MSCs cultured in standard conditions. Particulars: BMP7 treatment.
Assay [4] relates to EGM2-derived Bone Marrow-MSCs. Put plainly: BMP7-induced differentiation of BM-MSCs (QRT-PCR).

B1: Bone Morphogenetic Protein 4 (protein, UniProt P12644 293-408, looked up)
Bone morphogenetic protein 4: SPKHHSQRARKKNKNCRRHSLYVDFSDVGWNDWIVAPPGYQAFYCHGDCPFPLADHLNSTNHAIVQTLVNSVNSSIPKACCVPTELSAISMLYLDEYDKVVLKNYQEMVVEGCGCR
notes: recombinant human Bone Morphogenetic Protein 4 (Miltenyi), adipogenic/browning agent
Turning to B1, the “adipocyte generation after BMP treatment” value in assay [1] is “generated clearly defined adipocytes”. Besides, the “osteoblastic marker expression after BMP treatment” value in the assay on standard ASCs is on record as “expressed high levels of osteoblastic markers”. The “UCP1 induction at protein level” value in assay [2] is “strongly induced”.

B2: BMP7: recombinant human BMP7 (RnD system's), pro-beige/brown adipocyte factor (protein, UniProt P18075 293-431, looked up)
Bone morphogenetic protein 7: STGSKQRSQNRSKTPKNQEALRMANVAENSSSDQRQACKKHELYVSFRDLGWQDWIIAPEGYAAYYCEGECAFPLNSYMNATNHAIVQTLVHFINPETVPKPCCAPTQLNAISVLYFDDSSNVILKKYRNMVVRACGCH
As to B2, the “adipocyte generation after BMP treatment” value in assay [1] is given as “generated clearly defined adipocytes”. The “differentiation outcome of MSCs” value in assay [3] was “differentiate into osteoblastic cells solely”. For the same molecule, the “expression of adipogenic and brown/beige genes (UCP1, CIDEA)” value in assay [4] is “triggered expressions of adipogenic and UCP1, CIDEA genes”. Further, in the assay with standard ASCs, the “osteoblastic marker expression after BMP treatment” value is “expressed high levels of osteoblastic markers”. For the same molecule, in assay [2], the “UCP1 induction, BMP7 compared with BMP4” value is “more potent and reliable”; the “UCP1 induction at protein level” value was “strongly induced”.
